Experimental findings from patent US20070275916A1 are described below.

In test [1] the target is G-CSFR on mouse bone marrow cells (mouse) (UniProt P40223). Description: radiolabeled G-CSF on bone marrow cells from vavCre+SOCS3-/fl mice, with and without excess unlabeled G-CSF.
For test [2] the target is unchanged. Description: radiolabeled G-CSF on bone marrow cells from control vavCre-SOCS3+/fl mice, with and without excess unlabeled G-CSF.

Sequence of UniProt P40223 (P40223 26-837): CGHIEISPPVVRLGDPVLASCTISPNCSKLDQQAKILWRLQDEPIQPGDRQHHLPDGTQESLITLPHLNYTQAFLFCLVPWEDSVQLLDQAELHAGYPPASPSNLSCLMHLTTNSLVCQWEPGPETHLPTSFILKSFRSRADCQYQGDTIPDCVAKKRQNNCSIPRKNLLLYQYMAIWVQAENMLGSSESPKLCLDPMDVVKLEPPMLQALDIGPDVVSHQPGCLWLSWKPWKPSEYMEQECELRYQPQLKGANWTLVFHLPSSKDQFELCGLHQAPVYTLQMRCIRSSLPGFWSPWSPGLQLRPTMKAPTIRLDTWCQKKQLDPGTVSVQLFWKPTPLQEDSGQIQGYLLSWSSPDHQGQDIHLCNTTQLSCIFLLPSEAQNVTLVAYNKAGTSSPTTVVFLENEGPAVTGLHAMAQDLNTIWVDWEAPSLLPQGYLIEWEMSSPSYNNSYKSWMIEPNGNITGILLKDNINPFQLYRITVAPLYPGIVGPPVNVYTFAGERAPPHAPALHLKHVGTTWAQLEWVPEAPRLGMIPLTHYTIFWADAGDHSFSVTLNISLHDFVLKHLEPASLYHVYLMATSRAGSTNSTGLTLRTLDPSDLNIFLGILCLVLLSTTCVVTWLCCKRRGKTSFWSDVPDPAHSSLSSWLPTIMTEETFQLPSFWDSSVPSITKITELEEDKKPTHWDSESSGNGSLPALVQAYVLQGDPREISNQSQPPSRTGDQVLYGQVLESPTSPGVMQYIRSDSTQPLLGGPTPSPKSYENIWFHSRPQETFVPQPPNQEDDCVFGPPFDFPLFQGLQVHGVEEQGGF

As to radiolabeled G-CSF (ligand), the cpm bound in test [1] came to 1700 cpm; in test [2], 1880 cpm.
